Source: the supplement of paper PMC7125110
± gives the standard error. For some assays here: Variants at the floor of the assay were thinned out.

B1: glmS ribozyme (parent)
chain: AUAAAAGCGCCAGAACUACAGAAAUGUAGUUGACGAGGAGGAGGUUUAUCGAAUUUUCGGCGGAUGCCUCCAAA

Key:
Conditions in all cases: with glucosamine-6-phosphate
glucosamine-6-phosphate [1] = variants of: B1; assay: kcat; higher = faster cleavage; RNA array
Procedure, shortened: (§1)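 Barcoded glmS ribozyme variants on sequenced MiSeq chips were transcribed in situ by E. coli RNA polymerase and tracked through a hybridised Cy3 probe at 37 °C. Glucosamine-6-phosphate (40 μM to 10 mM) in HEPES/KCl/Mg(OAc)2 buffer was flowed in, and tiles were imaged over ~14 h. Signals were normalised to baseline and to non-cleaving reference variants; per-tile medians were fit to one- or two-exponential decays to give kobs. kcat and KM came from weighted Michaelis–Menten fits across concentrations.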

glucosamine-6-phosphate [2] = variants of: B1; assay: self-cleavage kobs at 40 uM GlcN6P; higher = faster cleavage; RNA array
Procedure, shortened: as §1

glucosamine-6-phosphate [3] = variants of: B1; assay: self-cleavage kobs at 640 uM GlcN6P; higher = faster cleavage; RNA array
Procedure, shortened: as §1

glucosamine-6-phosphate [4] = variants of: B1; assay: self-cleavage kobs at 2500 uM GlcN6P; higher = faster cleavage; RNA array
Procedure, shortened: as §1

glucosamine-6-phosphate [5] = variants of: B1; assay: self-cleavage kobs at 10000 uM GlcN6P; higher = faster cleavage; RNA array
Procedure, shortened: as §1

glucosamine-6-phosphate [6] = variants of: B1; assay: KM; higher = weaker cofactor use; RNA array
Procedure, shortened: as §1

glucosamine-6-phosphate [7] = variants of: B1; assay: self-cleavage kobs at 160 uM GlcN6P; higher = faster cleavage; RNA array
Procedure, shortened: as §1

Variant | kcat (glucosamine-6-phosphate [1]) [s⁻¹] | self-cleavage kobs at 40 uM GlcN6P (glucosamine-6-phosphate [2]) [s⁻¹] | self-cleavage kobs at 640 uM GlcN6P (glucosamine-6-phosphate [3]) [s⁻¹] | self-cleavage kobs at 2500 uM GlcN6P (glucosamine-6-phosphate [4]) [s⁻¹] | self-cleavage kobs at 10000 uM GlcN6P (glucosamine-6-phosphate [5]) [s⁻¹] | KM (glucosamine-6-phosphate [6]) [µM] | self-cleavage kobs at 160 uM GlcN6P (glucosamine-6-phosphate [7]) [s⁻¹]
U54G U55A C70G | 0.000128 ± 1.7e-05 | 6.4e-05 ± 1.6e-05 | 0.000102 ± 1.5e-05 | 0.000157 ± 2.6e-05 | 0.000145 ± 2.6e-05 | – | –
U54G C58A | 0.000823 ± 5.9e-05 | – | 0.00015 ± 2.9e-05 | 0.000361 ± 0.00012 | 0.000646 ± 0.00011 | 2870 ± 360 | –
U54G C58U | 0.000129 ± 7.5e-06 | – | – | 3.75e-05 ± 1.2e-05 | 7.98e-05 ± 9.4e-06 | 6130 ± 820 | –
A53U C58G | 9.99e-05 ± 7.2e-06 | – | 2.6e-05 ± 9.5e-06 | 7.16e-05 ± 1e-05 | 8.57e-05 ± 8e-06 | 1390 ± 370 | –
U56A | 0.0171 ± 0.0053 | 0.000397 ± 7.8e-06 | 0.00479 ± 0.00018 | 0.00725 ± 0.00034 | 0.0213 ± 0.00079 | 1750 ± 650 | 0.00127 ± 7.4e-05
U56C | 0.00571 ± 0.00066 | 7.94e-05 ± 1.5e-06 | 0.000963 ± 2.5e-05 | 0.00743 ± 0.0032 | 0.00442 ± 0.00011 | 3050 ± 430 | 0.000244 ± 8.9e-06
U54G G59A | 9.1e-05 ± 6.5e-06 | – | – | 6.93e-05 ± 2.3e-05 | 8.23e-05 ± 3e-05 | 858 ± 300 | –
U54G G59U | 3.86e-05 ± 1.5e-06 | – | – | 3.03e-05 ± 9.3e-06 | 3.71e-05 ± 6.4e-06 | 544 ± 170 | –
U54G C71G | 0.00104 ± 0.00019 | 8.73e-05 ± 8.8e-06 | 0.000398 ± 9e-05 | 0.000909 ± 0.0002 | 0.0011 ± 0.00012 | 511 ± 150 | 0.000192 ± 4.6e-05
A53U C67A | 0.00367 ± 0.00077 | 0.000214 ± 2.6e-05 | 0.0014 ± 0.00022 | – | 0.00376 ± 0.00054 | 785 ± 230 | 0.000559 ± 8.4e-05
C50U G66U | 1.12e-05 ± 2.8e-06 | – | < 1e-05 | – | – | – | –
G51C C68A | < 1e-05 | < 1e-05 | – | – | – | – | –
U54C U65C | 0.000618 ± 0.00021 | – | 0.000249 ± 6.5e-05 | 0.000743 ± 0.00016 | 0.000465 ± 0.00013 | – | –
U54G U65C | 0.00111 ± 0.0001 | – | 0.000211 ± 3.4e-05 | 0.000567 ± 9.8e-05 | 0.00091 ± 0.00012 | 2390 ± 350 | 7.61e-05 ± 1.2e-05
A52G C70U C71G | 2.63e-05 ± 1.1e-05 | – | – | 4.78e-05 ± 1.9e-05 | – | – | –
G51A G59U | < 1e-05 | < 1e-05 | < 1e-05 | – | – | 157 ± 36 | –
U56A U57G | 0.000127 ± 3.4e-05 | – | 3.45e-05 ± 1.3e-05 | 4.92e-05 ± 1e-05 | 0.000102 ± 2e-05 | – | –
G51U C61G | < 1e-05 | – | – | – | – | – | –

Variant | kcat (glucosamine-6-phosphate [1]) [s⁻¹] | self-cleavage kobs at 40 uM GlcN6P (glucosamine-6-phosphate [2]) [s⁻¹] | self-cleavage kobs at 640 uM GlcN6P (glucosamine-6-phosphate [3]) [s⁻¹] | self-cleavage kobs at 2500 uM GlcN6P (glucosamine-6-phosphate [4]) [s⁻¹] | self-cleavage kobs at 10000 uM GlcN6P (glucosamine-6-phosphate [5]) [s⁻¹] | KM (glucosamine-6-phosphate [6]) [µM] | self-cleavage kobs at 160 uM GlcN6P (glucosamine-6-phosphate [7]) [s⁻¹]
A52U C67A | 0.000206 ± 1.5e-05 | – | 6.53e-05 ± 8.3e-06 | 0.000124 ± 1.6e-05 | 0.000183 ± 2.1e-05 | 1480 ± 240 | –
U55C C58A | 0.000437 ± 0.00015 | – | 9.55e-05 ± 1.2e-05 | 0.000175 ± 2.3e-05 | 0.000455 ± 6.7e-05 | – | 4.03e-05 ± 1.3e-05
U54G U56A G63C | < 1e-05 | < 1e-05 | – | – | – | – | < 1e-05
G51U U57A | < 1e-05 | – | – | < 1e-05 | < 1e-05 | – | –
U55C U65C | 0.000217 ± 5e-05 | – | 7.31e-05 ± 1.1e-05 | 0.00011 ± 1.9e-05 | 0.000217 ± 3.1e-05 | – | –
U54G U56A G66A | 0.00395 ± 0.00074 | 0.000108 ± 1.7e-05 | 0.00162 ± 0.00028 | 0.00236 ± 0.00049 | 0.00335 ± 0.00067 | 1470 ± 370 | 0.000344 ± 5.5e-05
G51A U54A | < 1e-05 | – | – | – | – | – | –
U55G G66A | 0.0134 ± 0.004 | 0.000461 ± 7.7e-05 | 0.00303 ± 0.00072 | 0.00661 ± 0.0022 | 0.0124 ± 0.002 | 1790 ± 770 | 0.000877 ± 0.00021
U55G U69C | 0.000334 ± 4.6e-05 | 0.000197 ± 4.3e-05 | 0.000303 ± 6.9e-05 | 0.000289 ± 6.4e-05 | 0.000457 ± 8e-05 | – | 0.000229 ± 6.1e-05
U55G U69G | 7.83e-05 ± 1.5e-05 | – | 8.9e-05 ± 1.9e-05 | – | 6.23e-05 ± 1.7e-05 | – | 8.02e-05 ± 1.9e-05
U55A U69A | 9.24e-05 ± 1e-05 | 7.99e-05 ± 1.9e-05 | 9.88e-05 ± 1.9e-05 | 7.93e-05 ± 1.3e-05 | 0.000129 ± 2.7e-05 | – | 9.45e-05 ± 2.4e-05
U54G A64U | 9.79e-05 ± 1.5e-05 | – | 1.94e-05 ± 7.4e-06 | 7.47e-05 ± 9.1e-06 | 8.01e-05 ± 8e-06 | – | –
U55G G59C | 1.2e-05 ± 2.5e-06 | – | – | – | – | – | –
A52C C67U | 1.21e-05 ± 4.7e-06 | – | – | – | – | – | –
A53C G60A | 2.08e-05 ± 2.9e-06 | < 1e-05 | – | – | – | 7110 ± 2300 | < 1e-05
A53G C61U | 2.57e-05 ± 1e-06 | < 1e-05 | – | – | – | – | –
U55C C70U | 0.00171 ± 0.00048 | 2.44e-05 ± 9e-06 | 0.000172 ± 4.7e-05 | 0.000413 ± 8.4e-05 | 0.00111 ± 0.00012 | 5960 ± 3000 | 7.16e-05 ± 3e-05
